Experimental data reported in a protein production outcome set (Wang et al. 2014).

Experiment: label from the status in PepcDB records
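Further: failed if final PepcDB status was selected cloned or expressed and not failed if soluble or beyond.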

Q: With “MTEINLLQPMHASTKRDYVQRVVEHDKAESAAVARQWGRDYWDGDRRYGYGGYRYDGRWRPLAQTLIDRYGIKPGMSVLDVGCGKGYLLYEFTQLVPDLTIAGIDVSEYGIANAKEDVRPQLRVGSAVELPYPDHSFDLVVSLGVLHNLPLEDVFRAVSEIERVGRGASKYLMVESFRNEREKANLLYWQLTCLSFHGPDTWAWIYDKCGYRGDHGFIFFE” as the sequence, how does the protein production read?
A: failed

Q: With “MTEKHLIWDLPLRIFHWGFAATILAAWYTAEQGADLVEIHMQLGFVALALIAFRILWGLIGPKHARFSQFVPSPKSLLSYLRSPNTAKSTAGHNPLGALMVILMILLISAQAISGLFINDDVFSSGPYYGRISNELEKVMKFLHHNTFDFMIAAIVLHIAAITFYWRVKKENLVLPMITGKKTTAQVKSSDAIPHSKIILGCIVAVCCVIFVYWLVVVNAPVIEEFYY” as the sequence, how does the protein production read?
A: failed

Q: For “MTELVTFGETMLRLSPPGDERLETADQYAVRAAGAESNVAVAAQRLGVDAMWASKLPDSPVGRRVTGELKHHGVSVDVAWDDSDSARQGTYYLEQGSPPRGNDVIYDRQNASVTTATPAELPTEAIADAAGFHTSGITPALSETLESTTADLLSLAQDAGTTTSFDLNYRSKLWTPAEARSVLTELFPSVDLLVVAERDANVVLDRTGDAETIARDLAAEYGFEATVITRGSDGALALADGTVTEQPTFESTDAHPVGTGDSFVGGFLSQYLSGGTVADGLAWGAATAALKRTIPGDIAVVSPDEIRSILSGDTEAISR”, which protein production is on record?
A: failed

Q: With “MTENEFLSQEEIDKLLSDSDTGGVLTPEEKDMIGEIGNIAMGSAATTLSMILGRDIHITVPTVREEKMKNVKSDFSGEQVVVSVEYTEGLEGLNVLVLDKKLVAVIADLMMGGSGEVETEELDEIKLSAVGEAMNQMMGSAATSLSELLGITINISPPKVEI” as the sequence, how does the protein production read?
A: not failed

Q: With “MTENVVCTGAVNAVKEVWEKRIKKLNEDLKREKEFQHKLVRIWEERVSLTKLREKVTREDGRVILKIEKEEWKTLPSSLLKLNQLQEWQLHRTGLLKIPEFIGRFQNLIVLDLSRNTISEIPPGIGLLTRLQELILSYNKIKTVPKELSNCASLEKLELAVNRDICDLPQELSNLLKLTHLDLSMNDFTTIPLAVLNMPALEWLDMGSNKLEQLPDTIERMQNLHTLWLQRNEITCLPQTISNMKNLGTLVLSNNKLQDIPVCMEEMANLRFVNFRDNPLKLKVSLPPSEGTDEEEERELFGLQFMHTYIQESRRRADHQVNGSTTLPISINTDG” as the sequence, how does the protein production read?
A: not failed

Q: With “MTEPANNHPSPPPQNWLFKWWNSLNAITRLLVLVLGAPLMVLNARALSSIFGYFESLFVISLIASVIAFLLNYPVAWLEKQGAKRFVAASFVFLTALIIFTALGVTLIPLALSQAQQLVARLPDWLDSGQKQLVLLDQKAEILGWPVNFDGLIPQINSRLAAELQNLAGSTLNLALSLTVFTVVRLLDVLLTIILTFYLLLHTDDVWQSIIGWLPERFQKPFSDTLRRSFQNYFLGQLVSATCMALGLISGFLLLKVPFGLLFGLTVGVMALIPFGGSVGIVLVTFLVALRDIGMALQLLAVALVIQQIVENGIAPRVLGSVTGLNPFWVLISLLTGARIGGLLGVIVAVPSAVMIKEALGAIRSMKPLVPAPDHNQDPLYFKNQEEVQPLPPRP” as the sequence, how does the protein production read?
A: failed

Q: Which protein production does the source give for “MTEQAQYRDPRLVILYDRLNRWGADDDFFLALANETPGCRLLDLGCGTGRLTTALARAGHQVTGLEPARASLEVAQRKPGAEAVCWLQGSAQDAPTAAFDLCLMTAHVAQVFVEDDAWQDVLQHIHRALVPGGRLSFDMRDPAARAWDTWDSAGKRERLTLLDGSEAETWCDVLDVAGPIVSGPVVHFAEHTRFLPGQDVLTSTSRLRFRREDELRASLQAAGFAVEQVYGGWHGEPVGTGCGELVVVARRPG” here?
A: failed

Q: With “MTESFTRRERLRLRRDFLLIFKEGKSLQNEYFVVLFRKNGLDYSRLGIVVKRKFGKATRRNKLKRWVREIFRRNKGVIPKGFDIVVIPRKKLSEEFERVDFWTVREKLLNLLKRIEG” as the sequence, how does the protein production read?
A: not failed

Q: For “MTESNFDLPIISVIIPAYNCEKTIKKTIDSVLDQSFTDFELIVINDGSQDATLDIVSQIEDSRIKIFSFENAGGNVSRNRGLNLAVGKFISFLDADDIWTPNKLESQLEALHNNPGFHVAYSWTDYIDEDGNFLISGRRVTLNGDVYKKLFINNFLENGSNPLICKEALIALGGFDESLKAAQDWDMWLRLANKYSFVAVPYVQILYRVSSNSLSSNLVRQEKACKQVLEKAYQARPAIGNHILHLSIANLYKYLACKALQKPYSRSKGLAAVKFIWQYFLYDSSRMRRINSTLKLLFKALIIIILPAGLSTELLAKMRTKSLNPQLSAISGS”, which protein production is on record?
A: failed
